Measured values reported in article PMC2428106, “Regulation of intestinal hPepT1 (SLC15A1) activity by phosphodiesterase inhibitors is via inhibition of NHE3 (SLC9A3)” (Biochimica et Biophysica Acta, 2007).

Substrate: CN(CC(=O)O)C(=O)CN
Assay: cells, lysate or membranes
Format: cell-based, Homo sapiens

B1: hPepT1 (SLC15A1) (Homo sapiens) (protein)
chain: MGMSKSHSFFGYPLSIFFIVVNEFCERFSYYGMRAILILYFTNFISWDDNLSTAIYHTFVALCYLTPILGALIADSWLGKFKTIVSLSIVYTIGQAVTSVSSINDLTDHNHDGTPDSLPVHVVLSLIGLALIALGTGGIKPCVSAFGGDQFEEGQEKQRNRFFSIFYLAINAGSLLSTIITPMLRVQQCGIHSKQACYPLAFGVPAALMAVALIVFVLGSGMYKKFKPQGNIMGKVAKCIGFAIKNRFRHRSKAFPKREHWLDWAKEKYDERLISQIKMVTRVMFLYIPLPMFWALFDQQGSRWTLQATTMSGKIGALEIQPDQMQTVNAILIVIMVPIFDAVLYPLIAKCGFNFTSLKKMAVGMVLASMAFVVAAIVQVEIDKTLPVFPKGNEVQIKVLNIGNNTMNISLPGEMVTLGPMSQTNAFMTFDVNKLTRINISSPGSPVTAVTDDFKQGQRHTLLVWAPNHYQVVKDGLNQKPEKGENGIRFVNTFNELITITMSGKVYANISSYNASTYQFFPSGIKGFTISSTEIPPQCQPNFNTFYLEFGSAYTYIVQRKNDSCPEVKVFEDISANTVNMALQIPQYFLLTCGEVVFSVTGLEFSYSQAPSNMKSVLQAGWLLTVAVGNIIVLIVAGAGQFSKQWAEYILFAALLLVVCVIFAIMARFYTYINPAEIEAQFDEDEKKNRLEKSNPYFMSGANSQKQM
- Km: 1000 ± 200 µM
